Laboratory results from paper PMC4497409 (2015).

Target: Biotinylated human Norrin K58N (disease-associated mutation) (human, UniProt Q00604 25-133, K58N, biotin on the C-terminal BirA recognition sequence (in vivo biotinylation))
Experiment: SPR

Biotinylated human Norrin K58N (disease-associated mutation), sequence (Q00604 25-133 K58N): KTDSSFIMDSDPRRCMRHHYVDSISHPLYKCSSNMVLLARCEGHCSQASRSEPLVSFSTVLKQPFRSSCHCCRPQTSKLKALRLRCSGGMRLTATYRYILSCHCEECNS

Kd: 1240 nM
B1: Frizzled4 cysteine-rich domain (Fz4CRD), human (domain or fragment)
chain: ERRCDPIRISMCQNLGYNVTKMPNLVGHELQTDAELQLTTFTPLIQYGCSSQLQFFLCSVYVPMCTEKINIPIGPCGGMCLSVKRRCEPVLKEFGFAWPESLNCSKFPPQNDHNHMCMEGPGDEEVPLPHKTPIQPGE
modifications: N-linked glycans at Asn59 and Asn144 (full, or cut to N-acetylglucosamine by Endo-F1)
